Consider 137 substances from the supplement of paper PMC12042874.

± gives the uncertainty stated by the source.

This data set in a line: amyloid nucleation score (Sup35N fusion, yeast selection) (log enrichment); library NNK2; higher = more nucleation; inactive = no reads after selection. Summed up: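 Peptides of 20 random codons fused to Sup35N were expressed in psi-negative yeast, induced 24 hours with 100 μM copper sulfate, then grown 7 days at 30°C on medium lacking adenine and uracil. Input and output plasmid inserts were Illumina-sequenced. Nucleation score is the DiMSum log enrichment of output over input reads, centred on the mode score of non-aggregating sequences, excluding sequences with under 100 input reads. Random libraries had three technical output replicates.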
With RLFYYSSFYKDY, the amyloid nucleation score result was “inactive”.
With VGTPEHKLFYGLCVALGQFQ the entry was “inactive”; with YFRYMLW, 4.16 ± 0.1; with TIMYYVWCLFFWMCLGYGHS, 1.53 ± 0.1.
With HNRSFILNTAKFLVVNNPLA, the amyloid nucleation score result was “inactive”.
The figure for LSMQKCSLIIISRCGRSRNM is 3.77 ± 0.057; for RVTFSLWFADFIQNNLLKK it is 0.158 ± 0.5; for VTIYGVLSRLNDCFFRGVWD it is “inactive”.
With KYVCVI the figure was 0.809 ± 0.48.
With IIKECEWNCIVTSDIAYVRW, the amyloid nucleation score was 5.481 ± 0.052.
PSIKCTLFYSVTYLFMWGRK returned an amyloid nucleation score of -0.406 ± 0.63.
Consider GCRRETEDVSGRLCCVVWSL, for which the amyloid nucleation score is 0.206 ± 0.5.
With HSSAFMRMLMFRELRRNSDP the entry was “inactive”.
The entry for NQVFSIALAQNRSRHFFLGG is “inactive”; for LRTIEASLMGVSNLKKWSFI it is -0.299 ± 0.48.
The figure for AALGTDMSNWVHSRLNQERR is 0.433 ± 0.45.
Substance IYCLRAGTKHSSLLGAKEDK gave an amyloid nucleation score of 0.594 ± 0.66.
With TLECW the figure was 4.1 ± 0.049; with FKSCLAGVGLFILMRFHNIA, “inactive”.
The figure for SNYLAPYNNSDATYCG is -0.361 ± 0.54; for QNWVCMNRVYDLKDTYEIDL it is -0.526 ± 0.35; for VDGVSLSGEFFNTIVNNFCI it is 6.08 ± 0.062.
For KVRLSDIPSLAMICFKRDIN, the amyloid nucleation score entry was “inactive”.
With SAMLDRFYGVRFTMFCRAEH the figure was 0.299 ± 0.61; with KTCVPDYNNGWRFDFAYLD, -0.795 ± 0.45; with AKVRLYVRGGSLLIGIRSVV, 0.555 ± 0.22.
Turning to CVLQNWYSTSTPKSWLRGNV, the amyloid nucleation score was 0.678 ± 0.41.
With LSIGSQAI, the amyloid nucleation score stood at 0.501 ± 0.38.
In the case of FARLGLSSQHRRLIVC, the amyloid nucleation score is -1.31 ± 0.54.
The figure for QPCQSNSINDIHRRAGFGPL is -0.437 ± 0.64.
The figure for IPRIDDSDLFRTLDF is -0.52 ± 1.1.
The figure for RLDMYGLLINWSSVCLYNNI is 0.257 ± 0.21; for AAKDSAWFHAIWVKKVRREV it is 1.01 ± 0.68; for TIYPFYEKRMRY it is -0.459 ± 1.1.
Consider FSCSSDCLIFVSHRNRVLLN, for which the amyloid nucleation score is -0.596 ± 0.37.
Consider GYNTRKYWISGYNTTDSPGK, for which the amyloid nucleation score is -1.13 ± 0.35.
QNYRNSGVKLHTRRIISCNV gave an amyloid nucleation score of -0.526 ± 0.36.
Substance RISLERGNDFVTWVVYMKWA showed an amyloid nucleation score of -0.081 ± 0.34.
With GRLRDCRDEHNSNPTLRFTS the figure was 0.449 ± 0.16; with SCFTLSFKVITLHSRLQFIW, 0.181 ± 0.35; with HLFYCRSIGDILRSFGETPT, “inactive”.
In turn, CCVVIKN returned an amyloid nucleation score of 6.08 ± 0.079.
For the substance LGYRRSCEQGWGMLLGNYSH, the amyloid nucleation score entry was “inactive”.
Substance SHLKMDNPCLGF displayed an amyloid nucleation score of -0.121 ± 0.25.
With VRFSVLRFGKLCPSGLWRVR the figure was 0.255 ± 1.1.
In the case of RLTQCLVHRPYPV, the amyloid nucleation score was 0.572 ± 0.3.
With SWMAQCLPRYTHIADQSDGS the figure was 0.238 ± 0.17; with GLSMCIWCRSIQMTTLGSRY, 0.365 ± 0.36.
In the case of AWDGIHTMMITYLKFIEKCQ, the amyloid nucleation score was -1.31 ± 0.62.
Substance MASGRWYSNSTYGDCMGGIA returned an amyloid nucleation score of -0.321 ± 1.
In the case of FLRENLCTDVGLTHVCCTYT, the amyloid nucleation score result is “inactive”.
In turn, WGETVLYSDY gave an amyloid nucleation score of -1.01 ± 1.
With MVMTYLWARGCCMKLGVQFG the figure was 0.396 ± 0.66; with GMLSTTALNLLNMVICYYSL, 5.447 ± 0.035.
NLVFSTRIHKFFLNRGEG had an amyloid nucleation score of 5.15 ± 0.058.
On to YLPFMWCCMIWWAGGVCRL, for which the amyloid nucleation score was -0.143 ± 0.76.
With FRYRIYGGHLTINRIIYSLV the figure was -0.702 ± 1.1; with NAVYACLVGEVLWSSISTLS, 0.058 ± 0.54; with PYSFSV, “inactive”.
The figure for FIVMEVVEERCMSIVVESNQ is -0.804 ± 0.61; for SMLLVAFWWKGGWTRISPCQ it is 0.762 ± 0.23; for VMLSLMDKLEYMPV it is 1.31 ± 0.32.
With IGIDRL the figure was -0.069 ± 0.49.
For the substance VRGAIVQKALDCKSVDKSLE, the amyloid nucleation score result is “inactive”.
The figure for GRDFCFEVSHYVVMFAFLRD is 0.114 ± 0.63.
On to YLGTF, for which the amyloid nucleation score was determined as 0.187 ± 0.56.
With NRMRVMAWCAILNKELSGGK the figure was 0.93 ± 0.51; with GCRHYYWMMCNLVTFMKRES, 7.237 ± 0.028.
With GLRTLERSDVSVGVRRYLG the figure was 1.33 ± 0.51; with TSGMYMCFLMLLVFCQLLNG, -1.21 ± 0.44; with KCGSTFPLDLLYMSY, -1.16 ± 0.49.
Regarding TDNVIMVERDRASKVCERKG, the amyloid nucleation score is 0.433 ± 0.54.
As to ASWIAGYITMHTISSFP, the amyloid nucleation score was determined as 0.056 ± 0.36.
TVVVWA had an amyloid nucleation score of 0.19 ± 0.31.
With AFGKACPGMCMTKFTACTNR the figure was 0.569 ± 0.13; with YFSFFVSKVTGGWSCHVESA, -0.004 ± 0.34.
The substance LLFMKTFVVRP came in with an amyloid nucleation score of 0.494 ± 0.26.
The figure for TLFQLFIYLTFKVQVVAGTT is 3.92 ± 0.083.
The figure for FIKRAHVERFSLPKTPWSVD is -1.3 ± 1; for GFNSNGTFHFSQSVT it is -0.001 ± 0.65.
The figure for IYYGSRISPTWAGRLLCGER is -0.185 ± 0.44; for AFWRLAVLFVVCRIIF it is 0.13 ± 0.65.
Turning to VSSNSVWSIY, the amyloid nucleation score is -1.01 ± 0.44.
VRPFECGFTLPVWGG gave an amyloid nucleation score of 0.923 ± 0.81.
The figure for NIFMLTLGCGCQAFCSVIMT is 1.44 ± 0.17; for SRDVLVLIGYFSCGVIDSAL it is 5.16 ± 0.082; for LRVGSRKVRVWSLVSFCLVV it is -0.271 ± 0.42.
The figure for LRSDESRYPAFHRESSVRSR is 0.377 ± 0.3; for MVSLLNFRECMHY it is “inactive”; for LCRVALKEDS it is 0.436 ± 0.8.
The figure for RGTAIKILYL is 5.46 ± 0.069.
In turn, PLSPFTHGLSQYIALEIDGQ registered an amyloid nucleation score of -0.254 ± 0.63.
Substance LLYTTCSFGYLMQKFVL came in with an amyloid nucleation score of 1.58 ± 0.31.
Consider KDCYNHSGRTGVVTDQKAQW, for which the amyloid nucleation score is -0.118 ± 0.41.
The figure for LCDMI is 0.544 ± 0.29; for YHITSSLWVDDIHVLLNMGP it is 0.328 ± 0.42; for QIVAFY it is “inactive”.
The figure for RCIDFDSSCASTNYGSVLWA is 1.09 ± 0.38; for AFCKALCIVRRYSPPPLIVA it is “inactive”; for EREVCMFRLYAKRGPAVDWL it is 2.19 ± 0.21.
The figure for RYNRN is -0.195 ± 0.36; for RALRVRILYCEARRMCFMAN it is 0.236 ± 1.1.
For NFDSYVYNVASVFYVVGLGV, the amyloid nucleation score is 5.321 ± 0.048.
In turn, VVVRGVQAGCGKPPVSRLRI had an amyloid nucleation score of 0.838 ± 0.23.
Take MSCTRDSLCLNFLVILFTTQ: the amyloid nucleation score came out at 3.03 ± 0.065.
In turn, TNGRCVELVMMYKYSLFVGD yielded an amyloid nucleation score of 1.05 ± 0.61.
As for RATRLIRGTWYKKLKRVARI, the amyloid nucleation score was 1.32 ± 0.18.
For the substance CLNQSLRNTSWKHMAEPKKR, the amyloid nucleation score amounted to 3.82 ± 0.12.
In the case of QLPNPKNMISIGNYWKQRSF, the amyloid nucleation score was -1.47 ± 1.1.
With VLSNYGNYISDWQLQLRLT the figure was -0.149 ± 0.32.
With CSAVAALLPILGMELIGTSI the figure was -0.41 ± 0.55.
In turn, KYFVINPLIPIGQMEDIKLL yielded an amyloid nucleation score of -0.156 ± 0.33.
The figure for TGCWVEERTRLRLRIYDLLY is 0.004 ± 1.1.
With SNEIQNII the figure was 0.57 ± 0.81; with EGMLGIHRAGFLDGRGKLGL, “inactive”; with PSGGFTTSMVTDDIDVSARH, 0.708 ± 0.53.
Substance KKTSEKLEGYNVNISVLRGY registered an amyloid nucleation score of 2.59 ± 0.23.
With FSYRCFINTSQFYSAIKIFL the figure was 0.691 ± 0.14.
Substance VGRNYLWYRTMPDIYCQVCG showed an amyloid nucleation score of 1.62 ± 0.077.
With WFPALEYKCAQGQDRQQRPV, the amyloid nucleation score came to 0.351 ± 0.74.
In turn, LLFRRMEKSRLSLERV returned an amyloid nucleation score of -0.257 ± 0.45.
In turn, DSCCIFIL came in with an amyloid nucleation score of 5.67 ± 0.058.
The figure for VFWGILMRGVRRTFSDCAGT is -1.47 ± 0.75.
The figure for RGGVVNCRFRAHFMWL is 5.779 ± 0.041; for CRRGDLKDDEIYAMHLHRVS it is -1.12 ± 0.78; for WDPLSSCKGACDM it is 0.717 ± 0.43.
The figure for RSGESRWTYYLVEIYFDGSF is -0.913 ± 0.78; for HCTDGFLMAYVSFSRGMIIM it is “inactive”.
With ERNYVT, the amyloid nucleation score was -0.525 ± 1.1.
The figure for DCVNGVLFDGSPHVYGFLEW is 0.419 ± 0.32; for LGCEDIHKEYSLHFSIWMQM it is 0.975 ± 0.18; for VFLVHPTFSFKNRVCLNFVW it is -0.081 ± 1.1.
For the substance LIDRIKWEGPFRIRWLFSWF, the amyloid nucleation score is 0.566 ± 0.66.
With YGRSTHPGSRSF the figure was -1.25 ± 0.63; with SLELA, 0.472 ± 0.8.
In the case of LRSCRMSDDMK, the amyloid nucleation score was 1.18 ± 0.34.
The figure for YLSTFVGTVHDSHTCRFCWN is 3.79 ± 0.13.
